The values below come from PMC3380618.

Usually Kd stands for the constant that tells how readily two partners part at equilibrium.

One data set has as its target EcoRV K119A (UniProt P04390 2-245, K119A). Kind of data set: filter binding.
The target in data set [1] is EcoRV endonuclease wild type (UniProt P04390 2-245). Nature of the data set: FRET.

B1: PMe-2 racemic (dsDNA)
DNA 1: TGTGTTGTAGGATATCCTACAGGT
DNA 2: ACCTGTAGGATATCCTACAACACA
modifications: racemic Rp,Sp methylphosphonate at P-2, symmetric in both strands
B1 showed a Kd with EcoRV K119A of 1.1 pM.

B2: FRET 14 bp GATATC (dsDNA)
DNA 1: AGAAGATATCTTGA
DNA 2: TCAAGATATCTTCT
Turning to B2, the binding result in data set [1] is given as “binds”.
